Experimental data reported in patent publication US20150030595A1 (ANTIBODY AND RECEPTOR THERAPEUTICS, published 2015).
Where two headings read alike, the source gives them in different places.

T1: ACVR2B-Fc fusion protein (human, UniProt Q13705 19-137)
T1 construct: also called water-soluble ACVR2B
T1 sequence: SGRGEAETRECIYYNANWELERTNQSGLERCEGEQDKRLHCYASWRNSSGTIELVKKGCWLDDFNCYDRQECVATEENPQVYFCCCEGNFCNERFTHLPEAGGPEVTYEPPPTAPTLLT

T2: C-terminally active myostatin (R&D systems) (UniProt O14793 267-375, limits assumed)
T2 construct: mature
T2 sequence (looked up): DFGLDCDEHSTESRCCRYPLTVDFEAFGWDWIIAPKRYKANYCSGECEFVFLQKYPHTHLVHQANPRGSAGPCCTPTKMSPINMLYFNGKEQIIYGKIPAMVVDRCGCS


Assays:
[1] = molecular target: T1, ACVR2B-Fc fusion protein; assay: SPR (ProteOn XPR36), ACVR2B-Fc coated on the chip, Fc channel as reference
Experimental: This experiment was performed using a ProteOn XPR36 instrument (Bio-Rad). First, a sensor chip (GLC) was activated by reacting 0.1 M EDC and 0.025 M sulfo-NHS (Bio-Rad) for 60 seconds. […] The coating procedure was completed by allowing 1 M ethanolamine-HCl) (pH 8.5) to flow at the coated chip for 200 seconds. To test the bound proteins, the chip was rotated at an angle of 90°, and stabilized by allowing DPBST (PBS with 0.005% Tween 20) to flow on the chip for 30 minutes.

[2] = molecular target: T2, C-terminally active myostatin (R&D …); assay: ELISA, coating 1 ug/ml myostatin, binding 10 nM, anti-human Fc HRP
[3] = molecular target: T3, Fc; assay: phage ELISA, Fc coated
T3 construct: domain: Fc
Experimental: (§1) Colonies obtained from a group of the polyclonal phage antibodies having high binding capacity were cultured at a temperature of 37° C. for 16 hours in a 96-deep well plate (Bioneer 90030) containing 1 ml of a medium supplemented with 2×YTCM, 2% glucose, and 5 mM MgCl₂. 100 to 200 μl of the cultured cells were taken, and diluted with 1 ml of a medium supplemented with 2×YTCM, 2% glucose, and 5 mM MgCl₂ so that the OD₆₀₀ value of the cultured cells reached 1. Thereafter, the cells were cultured at a temperature of 37° C. for 2 to 3 hours in a 96-deep well plate so that the OD₆₀₀ value reached 0.5 to 0.7. Then, the cells were infected with an […] so that an MOI value became 1:20, and then cultured at a temperature of 30° C. for 16 hours in a medium supplemented with 2×YTCMK, 5 mM MgCl₂, and 1 mM IPTG. The cultured cells were centrifuged (at 4,500 rpm and 4° C. for 15 minutes) to collect a supernatant. Then, the supernatant was thoroughly dissolved in 4% PEG 6000 and 3% NaCl, and reacted on ice for an hour. The resulting reaction mixture was centrifuged again (at 8,000 rpm and 4° C. for 20 minutes), and the pellet was dissolved in PBS, and then centrifuged (at 12,000 rpm and 4° C. for 10 minutes) to obtain a supernatant, which was transferred to a new tube and stored at 4° C. Subsequently, a 96-well immunoplate was coated with antigens at a concentration of 100 ng per well by treating the immunoplate with the antigens at 4° C. for 16 hours, and each well was then blocked with skim milk (4%) dissolved in PBS. Each well was washed with 0.2 ml of PBS-Tween 20 (0.05%), and 100 μl of the monoclonal scFv-phages obtained by the above-described method were added to each well, and then reacted at room temperature for 2 hours. Each well was again washed four times with […] of PBS-Tween 20 (0.05%), and a secondary antibody, anti-M13-HRP, was diluted at 1:2000, added to each well, and then reacted at room temperature for an hour. Each well was washed with […] of PBS-Tween 20, colorimetrically developed, and then measured for optical density at 490 nm.

[4] = molecular target: T3, Fc; assay: phage ELISA, Fc coated; remark: listed apart in the source
[5] = molecular target: T1, ACVR2B-Fc fusion protein; assay: phage ELISA, ACVR2B coated
[6] = molecular target: T4, anti-myc antibody coated on the ELISA plate; assay: phage ELISA, anti-myc coated
T4 construct: also called a-MYC; a-myc
Experimental: as §1

[7] = molecular target: T4, anti-myc antibody coated on the ELISA …; assay: phage ELISA, anti-myc coated; remark: listed apart in the source
[8] = molecular target: T1, ACVR2B-Fc fusion protein; assay: phage ELISA, ACVR2B coated; remark: listed apart in the source
Experimental: as §1

[9] = molecular target: T1, ACVR2B-Fc fusion protein; assay: phage ELISA; OD on ACVR2B divided by OD on a-myc

Row | Binder | binding result [1] | binding result [2] | OD490 [3] [OD] | OD490 [4] [OD] | OD490 [5] [OD] | OD490 [6] [OD] | OD490 [7] [OD] | OD490 [8] [OD] | Ratio [9]
1 | EGF6-Fc (Fc fusion, also called 6M-Fc; not shown: human antibody Fc region of the pYK602-Fc vector and any SfiI-junction residues) PVTNCASSPCQNGGTCLQHTQVSYECLCKPEFTGLTCVKKRALSPQQVTRLPSGYGLAYRLTPGVHELPVQQPEHRILKVSMKELNKKTPLLTEG | no binding | binds | – | – | – | – | – | – | –
2 | ACVR2B A09 (monoclonal scFv-phage) (scFv, V domains shown, also called A9) VH: VQLVESGGGLVQPGRSLRLSCAASGFTFDSYWMSWVRQAPGKGLEWVANIKYDGSEKHYMDSVKGRFTISRDNAKNSVYLQMNSLRAEDTAVYYCAKGAWLDYWGQGTQVTVSS VL: IQMTQSPSAMSASVGDRVTITCRASQGISNYLAWFQQKPGKVPKRLIYAASSLQSGVPSRFSGSGSGTGFTLTITSLQPEDFATYYCLQHKSYPYTFGQGTKLEIK | – | – | 0.0482 | 0.048 | 2.18 | 1.17 | 1.17 | 2.18 | 1.86
3 | ACVR2B B12 (monoclonal scFv-phage) (scFv, V domains shown) VH: VQLVQSGAEVKKPGESLKISCKTSGYTFTHYWIGWVRQMPGKGLEWMGRINPTDSYADYSPSFQGHVIMSVDKSVSTAYLHWNSLKASDTAMYYCARGTALGVWGQGTTVTVSS VL: IQMTQSPSAMSASVGDRVTITCRASQGISNYLAWFQQKPGKVPKRLIYAASSLQSGVPSRFSGSGSGTEFTLTITSLQPEDFATYYCLQHKSYPYTFGQGTKLEIK | – | – | 0.0447 | 0.044 | 2.75 | 1.46 | 1.46 | 2.76 | 1.89
4 | ACVR2B F08 (monoclonal scFv-phage) (scFv, V domains shown, also called F8) VH: VQLVESGGGLVQPGGSLRLSCAASGFTFSDHYMDWVRQAPGKGLEWVGRTRNKANSYTTEYAASVKGRFTISRDDSKNSLYLQMNSLRAEDTAVYYCTKGAWLDYWGQGTLVTVSS VL: IQMTQSPSAMSASVGDRVTITCRASQGISNYLAWFQQKPGKVPKRLIYGASSLQGGVPSRFSGSGSGTEFTLTITSLQPEDFATYFCLQHKSYPLTFGPGTKVEIK | – | – | 0.117 | 0.116 | 2.94 | 0.783 | 0.783 | 2.94 | 3.75
5 | EGF3-6-Fc (DLK1 deletion mutant without the 1st and 2nd EGF-like repeat domains) (Fc fusion, also called 3M-Fc; not shown: human antibody Fc region of the pYK602-Fc vector and any SfiI-junction residues) DVRACSSAPCANNGTCVSLDDGLYECSCAPGYSGKDCQKKDGPCVINGSPCQHGGTCVDDEGRASHASCLCPPGFSGNFCEIVANSCTPNPCENDGVCTDIGGDFRCRCPAGFIDKTCSRPVTNCASSPCQNGGTCLQHTQVSYECLCKPEFTGLTCVKKRALSPQQVTRLPSGYGLAYRLTPGVHELPVQQPEHRILKVSMKELNKKTPLLTEG | binds | binds | – | – | – | – | – | – | –
6 | EGF4-6-Fc (Fc fusion, also called 4M-Fc; not shown: human antibody Fc region of the pYK602-Fc vector and any SfiI-junction residues) KDGPCVINGSPCQHGGTCVDDEGRASHASCLCPPGFSGNFCEIVANSCTPNPCENDGVCTDIGGDFRCRCPAGFIDKTCSRPVTNCASSPCQNGGTCLQHTQVSYECLCKPEFTGLTCVKKRALSPQQVTRLPSGYGLAYRLTPGVHELPVQQPEHRILKVSMKELNKKTPLLTEG | binds | binds | – | – | – | – | – | – | –
7 | ACVR2B B11 (monoclonal scFv-phage) (scFv, V domains shown) VH: VQLVESGGGLVQPGRSLRLSCAASGFTFDNHAMHWVRRAPGKGLEWVSGISWNGGTTAYADSVKGRFSIFRDNAEKSLYLQMNSLRAEDTAVYYCARGSSSGRYYFDYWGQGTLVTVSS VL: DIQMTQSPSSVSASVGDRVTITCRASQGISTYLNWYQHQSGKAPKLLIYGAFRLQSGVPSRFSGSGSGTDFTLTISNLQPEDFATYYCQQAKNFPLTFGGGTKVDIK | – | – | 0.0477 | 0.047 | 2.99 | 0.657 | 0.657 | 2.99 | 4.55
